Test: yeast display, Sf9 membrane polyspecificity reagent, FACS + sequencing; frameworks hold sequencing errors
Procedure, shortened: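 Using colony PCR, genes from sorted yeast display clones were amplified, then sequenced on MiSeq at 2 × 250 and filtered by CDR length. The clones had been stained with 10% biotinylated, detergent-solubilized Sf9 membrane reagent for 1 hour at 4 °C and sorted by FACS into low and high (top ~1%) gates on anti-HA and streptavidin fluorescence. Polyreactivity labels come from the gate of origin.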

| Sequence | polyreactivity (PSR sort gate) |
| --- | --- |
| QVQLVESGGGLVQAGGSLRLSCAASGFTFSFYAMGWYRQAPGKERELVATISSGGSTTYADSVKGRFTISRDNAKNTVYLQMNSLKPEDTAVYYCAARGKYYRSQDPSGPRRYDYWGQGTQVTVSS | high polyreactivity |
| QVQLVESGGGLVQAGGSLRLSCAASGFTFSGYAMGWYRQAPGKERELVAAITRRGGSTYYADSVKGRFTISRDNAKNTVYLQMNSLKPEDTAVYYCAADSGYPWELDYWGQGTQVTVSS | low polyreactivity |
| QVQLVESGGGLVQAGGSLRLSCAASGFTFSHYAKGWYRQAPGKDRELVAAITASGGNTYYADSVKGRFTISRDNAKNTVYLQMNSLKPEDTAVYYCNAVSLKFTRKYEYWGQGTQVTVSS | high polyreactivity |
| QVQLVESGGGLVQAGGSLRLSCAASGFTFSHYAMGWYRQAPGKERELVAAISWGGGSTYYADSVKGRFTISRDNAKNTVYLQMNSLKPEDTAVYYCARDVVYRGYYYGAFVYWGQGTQVTVSS | low polyreactivity |
| QVQLVESGGGLVQAGGSLRLSCAASGFTFSHYAMGWYRQAPGKERELVAAITASGGNTYYADSVKGRFTISRDNAKNTVYLQMNSLKPEDTAVYYCNAVSLKFTRKFDYWGQGTQVTVSS | high polyreactivity |
| QVQLVESGGGLVQAGGSLRLSCAASGFTFSKYAMGWYRPAPGKERELVAAISGSGGSTYYADSVKGRFTISRDNAKITVYLQMNSLKPEDTAVYYCAADGPGKYDYWGQGTQVTVSS | high polyreactivity |
| QVQLVESGGGLVQAGGSLRLSCAASGFTFSMYGMGWYRKAPGKERELVAAIRSGGSTNYADSVKGRFTISRDNAKNTVYLQMNSLKPEDTAVYYCAADVIPDGVKKPRMYYWGQGTQVTVSS | low polyreactivity |
| QVQLVESGGGLVQAGGSLRLSCAASGFTFSNYAMGWYRQAPGKERELVAAISRSGGSTYYADSVKGRFTISRDNAKNTVYLKMNSLKPEDTAVYYCNAVRYHARSGWSDYWGQGTQVTVSS | high polyreactivity |
| QVQLVESGGGLVQAGGSLRLSCAASGFTFSNYDMGWYRQAPGKEREFVADIDWSGGTTYYADSVKGRFTISRDNAKNTVYLQMNSLKPEDTAVYYCATDGYRALSYKYDYWGQGTQVTVSS | low polyreactivity |
| QVQLVESGGGLVQAGGSLRLSCAASGFTFSPNAMGWYRQAPGKERELVAAIDWSGDRTYYADSVKGRFTISRDNAKNTVYLQMNSLKPEDTAVEYCNVVRRSPGDYSYYYWGQGTQVTVSS | low polyreactivity |
| QVQLVESGGGLVQAGGSLRLSCAASGFTFSPNAMGWYRQAPGKERELVAAITTTGGSTHYADSVKRRFTISRDHAKNTVYLQMHSLKQEDTAVYYCAADWYFEYPTAFHYEYWGQGTQVTVSS | high polyreactivity |
| QVQLVESGGGLVQAGGSLRLSCAASGFTFSQYAMGWYRQAPGKERELVAAINSRGGSTYYADSVKGRFTISRDNAKNTVYLQMNSLKPEDTAVYYCNAVISGYPYEYDYWGQGTQVTVSS | high polyreactivity |
| QVQLVESGGGLVQAGGSLRLSCAASGFTFSRNAMGWYRQAPGKERELVAAISQSGGSTYYADSVKGRFTISRDNAKNTVYLQMHSLKPEDTAVYYCAAVGRLARRDYWGQGTQVTVSS | high polyreactivity |
| QVQLVESGGGLVQAGGSLRLSCAASGFTFSRYAMGWYRQAPGKERELVAAIRLRDGITYYADSVKGRFTISRDNAKNTVYLQMISLKPEDTAVYYCNAVNRTPVSQLDYWGQGTQVTVSS | high polyreactivity |
| QVQLVESGGGLVQAGGSLRLSCAASGFTFSRYAMGWYRQAPGKERELVAAISKSTDSTYYADSVKGRFTISRDNAKNTVYLQMNSLKPEDTAVYYCAAVQRYKGLQDDSWGQGTQVTVSS | high polyreactivity |
| QVQLVESGGGLVQAGGSLRLSCAASGFTFSRYAMGWYRQAPGKERELVAAISYSGGTTYYADSVKGRFTISRDNAKNTVYLQMNSLKPEDTAVYYCNARARGQLVGHYYYWGQGTQVTVSS | high polyreactivity |
| QVQLVESGGGLVQAGGSLRLSCAASGFTFSRYAMGWYRQAPGKERELVAAITLGGGNTYYADSVKGRFTISRDNAKYSVYLQMNSLKREDTSVYYCNAKFGIFGYRSGGYDYWGEGTQVTVSS | high polyreactivity |
| QVQLVESGGGLVQAGGSLRLSCAASGFTFSRYTMGWYRQAPGKERELDAAINRRGGSTYYADSVKGRFTISRDNAKNTVYLQMNSLKPEDTAVYYCAATYTVRSGNGIANDYWGQGTQVTVSS | high polyreactivity |
| QVQLVESGGGLVQAGGSLRLSCAASGFTFSRYTMGWYRQAPGKERELVAAITSVGSTYYADSVKGRFTISRDNAKNTVYLQMNSLKPEDTAVYYCARTYSTWYYYWGQGTQVTVSS | high polyreactivity |
| QVQLVESGGGLVQAGGSLRLSCAASGFTFSSNAMGWYRQAPGKERELVAAISFNSTSTYYADSVKGRFTISRDNAKNTVYLQMNSLKPEDTAVYYCAADVPRVQSEPEYDYWGQGTQVTVSS | low polyreactivity |
| QVQLVESGGGLVQAGGSLRLSCAASGFTFSSNAMGWYRQAPGKERELVAAISSSGARTYYADSVKGRFTISRDNAKNTVYLQMNSLKPEDTAVYYCNARGLAGRKGYDYWGHGTQVTVSS | high polyreactivity |
| QVQLVESGGGLVQAGGSLRLSCAASGFTFSTNAMGWYRQAPGKETELVAGITSSGGNTYYADSVKGRFTISRDNAKNTVYLQMNSLKPEDTAVYYCAKRRNYVAYDYWGQGTQVTVSS | high polyreactivity |

| Sequence | polyreactivity (PSR sort gate) |
| --- | --- |
| QVQLVESGGGLVQAGGSLRLSCAASGFTFSTYAMGWYRQAPGKERELVAGITRRGGSTYYADSVKGRFTISRDNAKNTVYLQMNSLKPEDTAVYYCARDLLRVSSSRYNSWGQGTQVTVSS | high polyreactivity |
| QVQLVESGGGLVQAGGSLRLSCAASGFTFSYSAMGWYRPAPGKERELVAAISSGGRTYYADSVKGRFTISRDNAKNTVYLQMNSLKPEDTAVYYCNAEPDQYTLRSITNDEDYWGQGTQVTVSS | low polyreactivity |
| QVQLVESGGGLVQAGGSLRLSCAASGFTFSYYAMGWYRQAPGKERELVAAISRSGGSPYYADSVKGRFTISRDNAKYTVYLQMNSLKPADTAVYYCATDLSYRHGYWGQGTQVTVSS | high polyreactivity |
| QVQLVESGGGLVQAGGSLRLSCAASGFTFSYYAMGWYRQAPGKERELVAAITFTGGSTYYADSVKGRFTISRDNAKNTVYLQMNSLKPEDTAVYYCAADWYYGDEYEYWGQGTQVTVSS | high polyreactivity |
| QVQLVESGGGLVQAGGSLRLSCAASGFTFSYYAMGWYRQAPGKERELVASISRSGNTYYADSVKGRFTISRDNAKNTFYLQMNSLKPEDTAVYYCAAKRKSYYSYNFDYWGQGTQVTVSS | high polyreactivity |
| QVQLVESGGGLVQAGGSLRLSCAASGFTFSYYDMGWYRQAPGTERELVAAISWSGGSTYYADSVKGRFTISRDNAKITVYLQMNSLKPEDTAVYYCNTDTDTTSSGYVYWGQGTQVTVSS | low polyreactivity |
| QVQLVESGGGLVQAGGSLRLSCAASGFTFTAYAMGWYRQAPGKERELVAAINWSGSRTYYADSVKGRFTISRDNAKNNVYLKMNSLKPEDTAVYYCNTATSKSSYRHYDYWGQGTQVTVSS | high polyreactivity |
| QVQLVESGGGLVQAGGSLRLSCAASGFTFTFNAMGWYRQAPGKERELVAGITSGTSTNYADSVKGRFTISRDNAKNTVYLQMNSLKPEDTAVYYCAADLYLTSGSQGVYVRYDYWGQGTQVTVSS | low polyreactivity |
| QVQLVESGGGLVQAGGSLRLSCAASGFTFTGNAMGWYRQAPGKERELVAAISRSGGSTFYADSVKGRFTISRDNAKNTVYLQMNSLKPEDTAVYYCAARRRTLNYLYDYWGQGTQVTVSS | high polyreactivity |
| QVQLVESGGGLVQAGGSLRLSCAASGFTFTGYTMGWYRQAPGKQRELVATISGSGGNTYYADSVKGRFTISRDNAKNTVYLQMNSLKPEDTAVYYCARRRSGPRVLYYYWGQGTQVTVSS | low polyreactivity |
| QVQLVESGGGLVQAGGSLRLSCAASGFTFTHYAMGWYRQAPGKERELVAAISTSGGSTYYADSVKGRFTISRDNAKNTVYLQMNSLKPEDTAVYYCAARRDGWVQWGYYYWGQGTQVTVSS | low polyreactivity |
| QVQLVESGGGLVQAGGSLRLSCAASGFTFTIYAMGWYRQAPGKERELVATISGRAGRTYYADSVKGRFTISRDNAKNTVYLQITSRKPEDSAVYYCNAGQWRYPGLYYYWGHGTQVTVSS | high polyreactivity |
| QVQLVESGGGLVQAGGSLRLSCAASGFTFTIYTMGWYRQAPGKERELVAAISRRGGSTYYADSVKGRFTISRDNAKNTVYLQMNSLNPEDTAVYYCAAYVPQGYKLYYWGQGTQVTGSS | high polyreactivity |
| QVQLVESGGGLVQAGGSLRLSCAASGFTFTKNAMGWYRQAPGKEREMVAAITWRGGSTYYADSVKGRFTISRDNAKNTVYLQMNSLKPEDTAVYYCAADGGSLYDWGQGTQVTVSS | low polyreactivity |
| QVQLVESGGGLVQAGGSLRLSCAASGFTFTKYAMGWYRQAPVKERELVADITSGTSTYNADSVKGRFTISRDNAKNTVYLQMNSLKPEDTAVYYCAAPLYGRYSYGYWGQGTQVTVSS | high polyreactivity |
| QVQLVESGGGLVQAGGSLRLSCAASGFTFTPYAMGWYRQAPGKERELVAAISWSDVRTYYADSVKGRFTISRDNAKNTVFLQMNSLKPEDTAVYYCAAEFYFYSWSEYDYWGQGTQVTVSS | high polyreactivity |
| QVQLVESGGGLVQAGGSLRLSCAASGFTFTRNTMGWYRQAPGKERELVADINWDDGSTNYADSVKGRFTISRDNAKNTVYLQMNSLKPEDTAVYYCAADYYFYYLYPSSNLYNYWGQGTQVTVSS | low polyreactivity |
| QVQLVESGGGLVQAGGSLRLSCAASGFTFTRYAMGWYRQAPGKERELVAAISSCGDTYYADSVKGRFTISRDNAKNTVYLQMNSLKPEDTAVYYCAADQSSLDYGNDYWGQGTQVTVSS | low polyreactivity |
| QVQLVESGGGLVQAGGSLRLSCAASGFTFTRYAMGWYRQAPGKERELVAAISWSGGSTYYADSVKGRFTISRDNAKNTVYLQMNSLKPEDTAVYYCAKRGTVRQGGYGYWGQGTLVTVSS | high polyreactivity |
| QVQLVESGGGLVQAGGSLRLSCAASGFTFTSYAMGWYRQAPGKERELVAAITWDGGRTYYADSVKGRFTISRDNSKNTVYLQMNSLKPEDTAVYYCAKVYNPRQYDYWGQGTQVTVSS | low polyreactivity |
| QVQLVESGGGLVQAGGSLRLSCAASGFTFTTNAMGWYRQAPGKEREFVAAISRSGGSTDYADSVKGRFTISRDNAKNTVYLQMNSLKPEDTAVYYCNADPRLRQTRDYWGHGTQVTVSS | high polyreactivity |

From the nanobody polyreactivity screen of Harvey et al. (2022)
